In US12356911B2, “Group of UDP-glycosyltransferase for catalyzing carbohydrate chain elongation and application thereof” (GSYNBIOT (SHANGHAI) CO., LTD, priority 2017, dated 2025):

Legend:
[1] = In vitro transglycosylation at C-3, Rd as glycosyl acceptor, UDP-xylose as donor; type: biochemical; settings: crude enzyme (E. coli lysate supernatant); TLC, FIG. 14
[2] = In vitro transglycosylation at C-3, Rh2 as glycosyl acceptor, UDP-glucose as donor; type: biochemical; settings: crude enzyme (E. coli lysate supernatant); TLC, FIG. 13, FIG. 15
Text: Cell lysate of recombinant E. coli with empty vector pET28a was used as a control.

B1: GT29-23: Ginseng UDP-glycosyltransferase, 442 amino acids, SEQ ID NO: 124 (protein)
chain: MDNQEGRISIALLPFLAHGHISPFFELAKQLAKRNCNVFLCSTPINLSSIKNKDSSASIKLVELHLPSSPDLPPHYHTTNGLPSHLMVPLINAFETAGPTFSEILKTLNPDLLIYDFNPSWAPEIASSHNIPAVYFLTTAAASSSIGLHAFKNPGEKYPFPDFYDNSNNTPEPPSADNMKLLHDFIACFERSCDIILIKSFIELEGKYIDLLSTLSDKTLVPVGPLVQDPMGHNEDPKTEQIINWLDKRAESTVVFVCFGSEYFLSNEELEEVAIGLEISMVNFIWAVRLIEGEKKGVLPEGFVQRVGDRGLVVEGWAPHARILGHSSTGGFVSHCGWSSIAESMKFGVPVIAMARHLDQPLNGKLAAEVGVGMEVVRDENGKYKREGIAEVIRKVVVEKSGEVMRRKARELSEKMKEKGEEEIDRAVEELVQICKKKKDAQ
modifications: misc_feature - GT29-23; Panax ginseng
[1]
  product formation from Rd and UDP-xylose (replacement of second glucose at C-3 with xylose): can all catalyze the replacement of the second glucose at C-3 position of Rd with xylose
[2]
  product formation from Rh2 and UDP-glucose (Rg3): can all catalyze the extension of a glucosyl at the C-3 glycosyl of Rh2 to generate Rg3

B2: GT29-37: Ginseng UDP-glycosyltransferase, 442 amino acids, SEQ ID NO.: 92 (protein)
chain: MDNQEGRISIALLPFLAHGHISPFFELAKQLAKRNCNVFLCSTPINLSSIKNKDSSASIKLVELHLPSSPDLPPHYHTTNGLPSHLMVPLINAFETAGPTFSEILKTLNPDLLIYDFNPSWAPEIASSHNIPAVYFLTTAAASSSIGLHAFKNPGEKYPFPDFYDNSNITPEPPSADNMKLLHDFIACFERSCDIILIKSFRELEGKYIDLLSTLSDKTLVPVGPLVQDPMGHNEDPKTEQIINWLDKRAESTVVFVCFGSEYFLSNEELEEVAIGLEISTVNFIWAVRLIEGEKKGILPEGFVQRVGDRGLVVEGWAPQARILGHSSTGGFVSHCGWSSIAESMKFGVPVIAMARHLDQPLNGKLAAEVGVGMEVVRDENGKYKREGIAEVIRKVVVEKSGEVIRRKARELSEKMKEKGEQEIDRALEELVQICKKKKDEQ
modifications: Panax ginseng
[1]
  product formation from Rd and UDP-xylose (replacement of second glucose at C-3 with xylose): can all catalyze the replacement of the second glucose at C-3 position of Rd with xylose
[2]
  product formation from Rh2 and UDP-glucose (Rg3): can all catalyze the extension of a glucosyl at the C-3 glycosyl of Rh2 to generate Rg3

B3: GT29-36: Ginseng UDP-glycosyltransferase, 442 amino acids, SEQ ID NO.: 90 (protein)
chain: MDNQKGRISIALLPFLAHGHISPFFELAKQLAKRNCNVFLCSTPINLSSIKDKDSSASIKLVELHLPSSPDLPPHYHTTNGLPSHLMLPLRNAFETAGPTFSEILKTLNPDLLIYDFNPSWAPEIASSHNIPAVYFLTTAAASSSIGLHAFKNPGEKYPFPDFYDNSNITPEPPSADNMKLLHDFIACFERSCDIILIKSFRELEGKYIDLLSTLSDKTLVPVGPLVQDPMGHNEDPKTEQIINWLDKRAESTVVFVCFGSEYFLSNEELEEVAIGLEISMVNFIWAVRLIEGEKKGVLPEGFVQRVGDRGLVVEGWAPQARILGHSSTGGFVSHCGWSSIAESMKFGVPVIAMARHLDQPLNGKLAAEVGVGMEVVRDENGKYKREGIAEVIRKVVVEKSGEVMRRKARELSEKMKEKGEEEIDRAVEELVQICKKKKDAQ
modifications: Panax ginseng
[1]
  product formation from Rd and UDP-xylose (replacement of second glucose at C-3 with xylose): can all catalyze the replacement of the second glucose at C-3 position of Rd with xylose
[2]
  product formation from Rh2 and UDP-glucose (Rg3): can all catalyze the extension of a glucosyl at the C-3 glycosyl of Rh2 to generate Rg3
